Source: patent US20220185894A1 (F STAR THERAPEUTICS, published 2022)
Residue numbers refer to the chain shown, from its start.

T1: cynomolgus LAG-3 expressed on cells (cynomolgus monkey, UniProt P18627 24-525 (human entry))
T1 construct: also called cLAG-3; cyno LAG-3
T1 chain: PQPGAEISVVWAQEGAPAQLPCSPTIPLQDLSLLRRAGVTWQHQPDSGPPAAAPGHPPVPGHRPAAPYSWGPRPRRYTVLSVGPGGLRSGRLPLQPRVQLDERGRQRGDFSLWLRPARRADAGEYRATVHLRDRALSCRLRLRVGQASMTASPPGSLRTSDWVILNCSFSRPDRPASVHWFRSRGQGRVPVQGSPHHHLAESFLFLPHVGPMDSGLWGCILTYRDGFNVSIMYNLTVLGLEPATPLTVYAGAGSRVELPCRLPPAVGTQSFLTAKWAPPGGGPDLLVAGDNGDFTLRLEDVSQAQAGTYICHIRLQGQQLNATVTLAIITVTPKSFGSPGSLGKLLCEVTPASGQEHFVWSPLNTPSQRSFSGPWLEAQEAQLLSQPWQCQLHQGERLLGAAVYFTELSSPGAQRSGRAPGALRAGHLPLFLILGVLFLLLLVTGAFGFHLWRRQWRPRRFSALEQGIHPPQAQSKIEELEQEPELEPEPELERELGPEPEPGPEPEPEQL

T2: human FcγRIIa (R&D Systems, 1330-CD) (human, UniProt P12318 36-218, limits assumed)
T2 construct: Bought recombinant protein
T2 sequence (looked up): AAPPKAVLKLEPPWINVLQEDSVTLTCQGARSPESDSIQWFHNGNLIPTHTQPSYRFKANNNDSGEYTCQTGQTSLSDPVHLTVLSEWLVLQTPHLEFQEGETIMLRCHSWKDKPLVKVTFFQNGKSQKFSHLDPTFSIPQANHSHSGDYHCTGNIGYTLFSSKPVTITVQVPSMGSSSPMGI

T3: human FcγRIIb/c (R&D Systems, 1875-CD) (human, UniProt P31994 46-217)
T3 construct: Bought recombinant protein
T3 sequence (looked up): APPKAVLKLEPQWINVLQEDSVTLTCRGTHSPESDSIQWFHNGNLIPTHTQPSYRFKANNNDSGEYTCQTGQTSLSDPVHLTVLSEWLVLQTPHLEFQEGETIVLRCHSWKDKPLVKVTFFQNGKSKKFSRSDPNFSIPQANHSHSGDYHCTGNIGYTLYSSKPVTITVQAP

T4: recombinant Fc-tagged human LAG-3 (R&D Systems, 2319-L3-050) (human, UniProt P18627 23-450)
T4 construct: Bought protein; also called LAG-3 Fc; human LAG-3-Fc; not shown: Fc tag of the bought fusion protein
T4 sequence: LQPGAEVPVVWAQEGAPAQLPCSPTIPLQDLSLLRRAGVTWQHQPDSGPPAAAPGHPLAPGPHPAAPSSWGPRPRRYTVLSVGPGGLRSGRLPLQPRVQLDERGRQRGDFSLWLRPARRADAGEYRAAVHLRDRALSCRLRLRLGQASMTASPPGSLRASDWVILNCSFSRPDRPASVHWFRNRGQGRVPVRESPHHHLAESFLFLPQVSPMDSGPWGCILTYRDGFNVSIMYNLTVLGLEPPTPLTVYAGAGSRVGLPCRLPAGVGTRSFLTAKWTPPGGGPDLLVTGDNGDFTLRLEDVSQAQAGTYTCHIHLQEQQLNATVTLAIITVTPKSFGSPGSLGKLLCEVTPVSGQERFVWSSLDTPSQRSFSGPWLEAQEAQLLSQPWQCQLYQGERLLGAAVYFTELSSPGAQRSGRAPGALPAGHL

T5: human LAG-3 expressed on cells (human, UniProt P18627 23-525)
T5 construct: also called hLAG-3; DO11.10 hLAG-3
T5 sequence: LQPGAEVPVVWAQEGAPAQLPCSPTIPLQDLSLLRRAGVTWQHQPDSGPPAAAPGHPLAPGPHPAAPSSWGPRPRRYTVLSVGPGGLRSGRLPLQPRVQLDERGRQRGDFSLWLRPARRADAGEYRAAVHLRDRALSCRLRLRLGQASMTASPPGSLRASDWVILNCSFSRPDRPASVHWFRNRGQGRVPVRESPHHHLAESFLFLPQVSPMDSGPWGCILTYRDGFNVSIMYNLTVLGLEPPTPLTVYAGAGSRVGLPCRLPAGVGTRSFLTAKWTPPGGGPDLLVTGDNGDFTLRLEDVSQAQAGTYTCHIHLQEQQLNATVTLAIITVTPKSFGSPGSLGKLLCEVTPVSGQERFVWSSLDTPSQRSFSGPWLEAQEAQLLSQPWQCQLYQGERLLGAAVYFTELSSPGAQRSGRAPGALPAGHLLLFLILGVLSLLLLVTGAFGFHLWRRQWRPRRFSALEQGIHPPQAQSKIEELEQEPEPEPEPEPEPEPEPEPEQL

B1: anti-human LAG-3/FITC mock mAb2 FS18-7-78/4420 comprising LALA mutation (bispecific antibody, human IgG1, kappa, L234A L235A)
heavy: EVKLDETGGGLVQPGRPMKLSCVASGFTFSDYWMNWVRQSPEKGLEWVAQIRNKPYNYETYYSDSVKGRFTISRDDSKSSVYLQMNNLRVEDMGIYYCTGSYYGMDYWGQGTSVTVSSASTKGPSVFPLAPSSKSTSGGTAALGCLVKDYFPEPVTVSWNSGALTSGVHTFPAVLQSSGLYSLSSVVTVPSSSLGTQTYICNVNHKPSNTKVDKKVEPKSCDKTHTCPPCPAPEAAGGPSVFLFPPKPKDTLMISRTPEVTCVVVDVSHEDPEVKFNWYVDGVEVHNAKTKPREEQYNSTYRVVSVLTVLHQDWLNGKEYKCKVSNKALPAPIEKTISKAKGQPREPQVYTLPPSWDEPWGEDVSLTCLVKGFYPSDIAVEWESNGYKEENYKTTPPVLDSDGSFFLYSKLTVPYDRWVWPDEFSCSVMHEALHNHYTQKSLSLSPG
light: DVVMTQTPLSLPVSLGDQASISCRSSQSLVHSNGNTYLRWYLQKPGQSPKVLIYKVSNRFSGVPDRFSGSGSGTDFTLKISRVEAEDLGVYFCSQSTHVPWTFGGGTKLEIKRTVAAPSVFIFPPSDEQLKSGTASVVCLLNNFYPREAKVQWKVDNALQSGNSQESVTEQDSKDSTYSLSSTLTLSKADYEKHKVYACEVTHQGLSSPVTKSFNRGEC
notes: also called FS18-7-78/4420LALA; FS18-7-78 in mock mAb2 format
B2: anti-human LAG-3/PD-L1 mAb2 FS18-7-62/84G09 with LALA mutation (bispecific antibody, human IgG1, kappa, L234A L235A)
heavy: EVQLVESGGGLVQPGRSLRLSCAASGFTFDDYAMHWVRQTPGKGLEWVSGISWKSNIIGYADSVKGRFTISRDNAKNSLYLQMNSLRAEDTALYYCARDITGSGSYGWFDPWGQGTLVTVSSASTKGPSVFPLAPSSKSTSGGTAALGCLVKDYFPEPVTVSWNSGALTSGVHTFPAVLQSSGLYSLSSVVTVPSSSLGTQTYICNVNHKPSNTKVDKKVEPKSCDKTHTCPPCPAPEAAGGPSVFLFPPKPKDTLMISRTPEVTCVVVDVSHEDPEVKFNWYVDGVEVHNAKTKPREEQYNSTYRVVSVLTVLHQDWLNGKEYKCKVSNKALPAPIEKTISKAKGQPREPQVYTLPPSWDEPWGEDVSLTCLVKGFYPSDIAVEWESNGIPEWNYKTTPPVLDSDGSFFLYSKLTVPYDRWVWPDEFSCSVMHEALHNHYTQKSLSLSPG
light: DIQMTQSPSSLSASVGDRVTITCRASQSISSYLNWYQQKPGKAPKPLIYVASSLQSGVPSSFSGSGSGTDFTLTISSLQPEDFATYYCQQSYSNPITFGQGTRLEIKRTVAAPSVFIFPPSDEQLKSGTASVVCLLNNFYPREAKVQWKVDNALQSGNSQESVTEQDSKDSTYSLSSTLTLSKADYEKHKVYACEVTHQGLSSPVTKSFNRGEC
notes: also called FS18-7-62/84G09LALA; F518-7-62/84G09LALA
B3: anti-human LAG-3/PD-L1 mAb2 FS18-7-78/84G09 with LALA mutation (bispecific antibody, human IgG1, kappa, L234A L235A)
heavy: B2 heavy with I391Y, P392K, W394E
light: B2 light
notes: also called FS18-7-78/84G09 LALA; FS18-7-78/84G09LALA

Key:
[1] = target: T6, human FcγRI (R&D Systems, 1257-FC) (human, UniProt P12314 16-288); assay: SPR, Biacore T200; FcγR immobilised, 200 µg/ml injected
T6 construct: Bought recombinant protein
T6 sequence (P12314 16-288 limits assumed): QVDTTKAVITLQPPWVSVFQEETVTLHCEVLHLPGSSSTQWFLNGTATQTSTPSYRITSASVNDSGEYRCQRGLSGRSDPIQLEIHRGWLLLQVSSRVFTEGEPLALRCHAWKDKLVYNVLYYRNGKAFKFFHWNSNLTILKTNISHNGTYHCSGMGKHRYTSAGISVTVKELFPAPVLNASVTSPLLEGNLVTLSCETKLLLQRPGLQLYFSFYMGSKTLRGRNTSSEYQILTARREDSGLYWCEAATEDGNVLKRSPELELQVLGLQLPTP
Procedure: (§1) The introduction of the LALA mutation in the CH2 domain of human IgG1 is known to reduce Fc γ receptor binding (Bruhns, P., et al. (2009); and Xu, D. et al. (2000)). […] The human FcγR binding assay was performed on a Biacore T200 instrument (GE Healthcare) using the Fcabs in the mock mAb² format. […] For each immobilized chip a flow cell was left blank for background subtraction. FcγR were immobilized using a concentration of 5 μg/ml in sodium acetate pH5 (ForteBio, 18-1069) and injected at a flow rate of 10 μl/min in 15 second cycles until the required immobilization level was reached.
(§2) The flow cells were regenerated by injecting 10 mM sodium hydroxide (VWR, 28244.262) at a flow rate of 100 μl/min for 30 seconds. The data analysis was performed with BiaEvaluation software version 3.2 RC1 by double referencing against the blank flow cell (without immobilized FcγR) and subtracting a buffer cycle from test mAb².

[2] = target: T1, cynomolgus LAG-3 expressed on cells; assay: flow cytometry on DO11.10 cells expressing cynomolgus LAG-3
Procedure: DO11.10:LAG-3 cell suspensions were prepared in PBS+2% BSA (Sigma, A7906) and seeded at […] with 50 μl/well in V-bottomed 96-well plates (Costar, 3897). […] The plates were washed and 100 μl/well of secondary antibody (anti-human Fc-488 antibody, Jackson ImmunoResearch, 109-546-098) diluted 1:1000 in PBS+2% BSA was then added and incubated for 30 mins at 4° C. in the dark. The plates were washed and resuspended in 100 μl of PBS containing DAPI (Biotium, 40043) at […]. The plates were read using Canto II flow cytometer (BD Bioscience). The dead cells were excluded and the fluorescence in the FITC channel (488 nm/530/30) was measured. The data was fit using log (agonist) vs response in GraphPad Prism Software.

[3] = target: T2, human FcγRIIa (R&D Systems, 1330-CD); assay: SPR, Biacore T200; FcγR immobilised, 500 µg/ml injected
Procedure: as §1, §2

[4] = target: T3, human FcγRIIb/c (R&D Systems, 1875-CD); assay: as above
Procedure: as §1, §2

[5] = target: T7, human PD-L1 Fc (R&D Systems, 156-B7) (human, UniProt Q9NZQ7 19-239); assay: SPR, BIAcore T200; mAb2 captured on Protein L, PD-L1 Fc injected
T7 construct: Bought protein; not shown: Fc tag of the bought fusion protein
T7 sequence (Q9NZQ7 19-239 limits assumed): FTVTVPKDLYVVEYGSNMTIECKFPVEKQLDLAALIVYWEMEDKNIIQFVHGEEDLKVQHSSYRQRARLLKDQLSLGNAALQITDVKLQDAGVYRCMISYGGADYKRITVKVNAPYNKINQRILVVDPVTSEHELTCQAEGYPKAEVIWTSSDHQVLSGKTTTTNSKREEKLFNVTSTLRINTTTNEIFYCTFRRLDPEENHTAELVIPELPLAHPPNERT
Procedure: (§3) Protein L (Thermo, 21189) was immobilized on flow cells 1 and 2 of a Series S CM5 chip (GE Healthcare, BR-1005-30) by amine coupling (GE Healthcare, BR-1000-50) to a surface density of 2000 RU by following the manufacturer's instructions for the BIAcore T200 instrument. […] The association time was 3 min and the dissociation time was 6 min. Running buffer was HBS-P (GE Healthcare, BR-1003-68). Both flow cells were regenerated by injecting 10 mM sodium hydroxide (NaOH) at a flow rate of 100 μl/min for 20 seconds. The data were analysed by double referencing against the blank flow cell.
(§4) The binding kinetics were fit with a 1:1 Langmuir model to generate binding association (kₐ) and dissociation (kd) rates. Equilibrium binding constants (KD) were calculated by dividing the dissociation rate by the association rate for each sample. Data analysis was performed with BiaEvaluation software version 3.2.

[6] = target: T4, recombinant Fc-tagged human LAG-3 (R&D …); assay: SPR, BIAcore T200; mAb2 captured on Protein L, human LAG-3 Fc injected
Procedure: as §3, §4

[7] = target: T5, human LAG-3 expressed on cells; assay: flow cytometry on HEK cells expressing human LAG-3
Procedure: (§5) The affinity of the mAb² (all containing the LALA mutation) for cell expressed human or cynomolgus LAG-3 was determined using flow cytometry. HEK cells expressing human or cynomolgus LAG-3 grown in DMEM (Life Technologies, 61965-026) containing 10% FBS (Life Technologies, 10270-1-6), 100 μg/ml Hygromycin B (Melford Laboratories Ltd, Z2475), 15 μg/ml Blasticidin (Melford Laboratories Ltd, B1105) and 1 μg/ml Doxycyclin (Sigma, D9891) were detached from tissue culture flasks using cell dissociation buffer (Life Technologies, 13151-014) and seeded in V-bottom 96-well plates (Costar, 3897) at 2×10⁵ cells/well. The plates were centrifuged at 1500 rpm for 3 min at 4° C. to pellet the cells. A dilution series of the mAb² (or control mAb) were incubated with the cells in a 100 μl volume for 1 h at 4° C. The plates were washed and secondary antibody (Anti-human Fc-488, Jackson ImmunoResearch, 109-546-098) was diluted 1:1000 in PBS and 100 μl was added to the cells for 30 min at 4° C. (plates were kept in the dark). The plates were washed and then cells were resuspended in 100 μl PBS containing 1 μg/ml DAPI (Biotium, 40043). The plates were read using Canto II flow cytometer (BD Bioscience). Dead cells were excluded and the fluorescence in the FITC channel (488 nm/530/30) was measured. The data was fit using log (agonist) vs response in GraphPad Prism Software. The plates were read on a BD FACSCanto II cytometer (BD Biosciences) and the data analysed using FlowJo.

[8] = target: human PD-L1 expressed on cells (human, UniProt Q9NZQ7 19-290); assay: cell-based or functional assay
Chain of human PD-L1 expressed on cells (Q9NZQ7 19-290 limits assumed): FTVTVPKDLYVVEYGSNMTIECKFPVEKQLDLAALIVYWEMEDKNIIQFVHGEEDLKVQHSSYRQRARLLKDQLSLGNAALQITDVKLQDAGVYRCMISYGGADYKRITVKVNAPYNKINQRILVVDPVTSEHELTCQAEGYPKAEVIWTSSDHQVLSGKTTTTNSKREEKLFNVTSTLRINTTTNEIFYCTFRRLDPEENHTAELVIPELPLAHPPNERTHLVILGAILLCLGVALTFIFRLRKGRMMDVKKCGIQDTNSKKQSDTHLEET

[9] = target: T1, cynomolgus LAG-3 expressed on cells; assay: flow cytometry on HEK cells expressing cynomolgus LAG-3
Procedure: as §5

Binder | binding response at end of association (RU) [1] | EC50 [2] | binding response at end of association (RU) [3] | binding response at end of association (RU) [4] | Kd [5] | koff [5] | kon [5] | Kd [6] | koff [6] | kon [6] | EC50 [7] | Maximal IL2 release calculated as % ctrl (84G09 + 25F7) [8] | EC50 [9] | fold better binding (EC50) than control antibody 25F7 [9]
B1 | -0.3 RU | 0.5 nM | -10.7 RU | -9.2 RU | – | – | – | – | – | – | – | – | – | –
B2 | – | – | – | – | 1.3 nM | 0.00022 s⁻¹ | 170000 M⁻¹ s⁻¹ | 0.036 nM | 0.0002 s⁻¹ | 5.4e+06 M⁻¹ s⁻¹ | 4.08 nM | 59% | 26.4 nM | ≥ 2 fold
B3 | – | – | – | – | 1 nM | 0.0001 s⁻¹ | 100000 M⁻¹ s⁻¹ | 0.029 nM | 0.00014 s⁻¹ | 4.8e+06 M⁻¹ s⁻¹ | 2.53 nM | 64.4% | 24.8 nM | ≥ 2 fold
